# Data from the supplement of paper PMC12042874.
# ± gives the uncertainty stated by the source.
# Assay: amyloid nucleation score (Sup35N fusion, yeast selection) (log enrichment); library NNK3; higher = more nucleation; inactive = no reads after selection
# Procedure, shortened: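 Plasmid inserts were Illumina-sequenced at input and output from psi-negative yeast expressing Sup35N fused to peptides of 20 random codons. The yeast were induced with 100 μM copper sulfate for 24 hours and grown 7 days at 30°C on medium lacking adenine and uracil, and sequences with under 100 input reads were excluded. Nucleation score is the DiMSum log enrichment of output over input reads, centred on the mode score of non-aggregating sequences.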
row,Substance,amyloid nucleation score
1,TVEVFNHMRERHNYMS,inactive
2,TVFSDFSGSKEMTVTIRRWV,inactive
3,TVLGM,0.699 ± 0.17
4,TVLLLGRWYN,1.24 ± 0.14
5,TVLWFSC,inactive
6,TVLYLNDDIATYHRMLVFRV,inactive
7,TVMPLRMSSISGSAGTSA,inactive
8,TVQNVLCHCMMSNMAYWGHQ,2.63 ± 0.082
9,TVRKHLLLDHKWYVVNSEIT,inactive
10,TVRVYIHIYHIGFLGPMRSE,0.889 ± 0.22
11,TVSGLMVFVMHNGYS,1.45 ± 0.084
12,TVVIVPNWPVCRGHDFGERC,inactive
13,TWDWGCKVGFRKGKKV,inactive
14,TWNMFDGSVRHFSIWFSARS,inactive
15,TWQEVMNVQRTS,inactive
16,TWQVFSASVTVSLSYTSK,inactive
17,TWRNLILRFGCGGFSKTTFK,inactive
18,TWVTAGYCVNIYRTRSWMK,inactive
19,TWVWGKFFGFLNSDISDVRH,inactive
20,TWWFK,-0.234 ± 0.28
21,TWYVLSNDNSCVYTGPTCQ,inactive
22,TYFHIRCVV,inactive
23,TYFTFSTWLRMYSGYSLVQV,inactive
24,TYPRLNVHLLPLDFILYPH,inactive

row,Substance,amyloid nucleation score
1,TYSNMCVSDVLCLTLT,2.38 ± 0.048
2,TYYSLVF,inactive
3,VAADITSEA,inactive
4,VAAFVNRARNATFVLALYCY,inactive
5,VAFSFYFNSILVSVTRIVGS,0.773 ± 0.15
6,VAPLANHKASRDSYAYVSGS,inactive
7,VCEQYFGRCNLRNKFCIWTL,inactive
8,VCGIVIRGKVPKDKQYNMGE,inactive
9,VCHGRSNHA,inactive
10,VCLDHHGVGFYVRSSSCSS,inactive
11,VCLHDRLGVHVGQIRLGYRC,inactive
12,VCLLSS,inactive
13,VCMFEFMDKFWNFVVTAEQC,inactive
14,VCRGQRISACQSRSVCGCWH,inactive
15,VCSLVGKKRPHGSTSI,inactive
16,VCVRYLFLFFSLIFYSGT,inactive
17,VCWMSVRDNNNGHFLIYSSD,inactive
18,VCYLFWDVWVFLGEVTANT,inactive
19,VDFYAQ,inactive
20,VDGATFFISWKIMARDSYRY,inactive
21,VDGSVNMRALKCINNCVL,inactive
22,VDMRSDDLIMQFWQLLSDDV,inactive
23,VDRFRSQNKFVSNGMSLIRK,inactive
24,VDVDPVSSD,inactive

row,Substance,amyloid nucleation score
1,VEAHLLL,0.01 ± 0.87
2,VEGATWHTWSCVNHVVVKGF,inactive
3,VEVMSGDEMWCLWLEFPSFE,inactive
4,VEYNWSLFFNPRDFRGARDL,0.505 ± 0.27
5,VFEHVGWNPHVRYTVNR,inactive
6,VFFVQCNHWNGMVNVFAM,2.9 ± 0.057
7,VFFYSDHVLCVYFVSLYSFS,0.386 ± 0.42
8,VFGET,inactive
9,VFGMKSRDIRIS,inactive
10,VFGRLFIQMPKLTINQGKFH,1.83 ± 0.089
11,VFGRWCFLETCMMHFTFSRY,0.865 ± 0.22
12,VFHHIILRFN,inactive
13,VFISLVLSDLRSFARVVLGG,inactive
14,VFMCILDWRVNSHMCLKLFH,inactive
15,VFNWYEVVFTFWCNMTANGM,1.49 ± 0.069
16,VFSDGLFVMTAAVYQYT,inactive
17,VFSDTRCVCRKRSSVFKIVS,inactive
18,VFSFLYIRNV,1.55 ± 0.087
19,VFTFRWHVWRDWLMSEHCDK,-0.296 ± 0.55
20,VFYELAYFSNNQTDQWVLD,inactive
21,VFYMRSETKLFL,-0.391 ± 0.8
22,VGCRMPVACRTWRDKYALAR,inactive
23,VGFPPSSTSRCR,inactive
24,VGGGSFCFKHRLNGGTDGHV,1.11 ± 0.13

row,Substance,amyloid nucleation score
1,VGGLSSDPTADISFVVVFQD,0.089 ± 0.71
2,VGHERTVSLQHCGRRLRWCW,inactive
3,VGIKTFGESGMYQVCSQVSC,inactive
4,VGLAVVSLLSNRRNEDELCF,inactive
5,VGQFVRGLVKLCNGMYYWWL,inactive
6,VGSAGVSVFVWRVCRFCEGN,-0.434 ± 1.1
7,VGSCIVKMIDFASTKGRGLI,inactive
8,VGSIYDSHNLPMSGHSDWNG,inactive
9,VGSYVGRAVVEGYNCRVDTG,inactive
10,VGTFWGFTIPSWYSVVVEVC,inactive
11,VGYFV,inactive
12,VGYGFIC,inactive
13,VGYVWIDRYVWRYGLC,inactive
14,VHFCWNADVSLHITLVGINS,inactive
15,VHFYWS,inactive
16,VHHLLELEQVHNKDGTF,inactive
17,VHICKWVM,inactive
18,VHKYSVDFGKGW,inactive
19,VHLWGGRGHQLVWVHVRWGV,inactive
20,VHREVGLDFYDNVTCTMFHI,inactive
21,VHSIYSTNFVLVFIPQSSVN,1.9 ± 0.075
22,VIANVKIMTFFMAFSAVHTM,1.48 ± 0.13
23,VIAVRYYRLLDRMNVSGSVF,inactive
24,VIFNHVLACADYGVHKVVDL,inactive

row,Substance,amyloid nucleation score
1,VIIIEWV,inactive
2,VITTVTTWGLRAGDVMRRTR,1.11 ± 0.17
3,VIYHPRFSRFLCEDWHDTCS,inactive
4,VKCVYERRDGRLWLMILAMG,-0.481 ± 0.52
5,VKDNFRFSLNRPMKRHVVWA,inactive
6,VKFMMPRVDIWFKDGVRRYT,inactive
7,VKGGRLISLNRVLFLEDPVG,inactive
8,VKISPNAWALQLR,inactive
9,VKSVLFDGKL,inactive
10,VLAMIVRHRKYKIDFIFMLD,inactive
11,VLARLQLHFCSMTSDRYGLM,1.04 ± 0.11
12,VLCLLGSSVSS,inactive
13,VLDVFKGIW,inactive
14,VLDVVGKKFMRVSWQDGMPG,1.13 ± 0.18
15,VLFNSPTRGVHLLQTGSRQS,inactive
16,VLGDMVYGGHAL,inactive
17,VLGILYSTE,inactive
18,VLKSIGV,inactive
19,VLLCYNIVKPYNVSC,inactive
20,VLLDMFRNFVWNSRVVFNGS,inactive
21,VLLFYLKVTRASTVGVLSSS,inactive
22,VLLGTSECHSHKILQGKSAV,inactive
